Experimental findings from the Human Domainome abundance scans (Beltran et al. 2025) are described below.

± gives the uncertainty stated by the source.

B1: Retinoic acid receptor RXR-alpha, residues 132 to 208; numbered along this chain, P19793 (parent)
chain: KHICAICGDRSSGKHYGVYSCEGCKGFFKRTVRKDLTYTCRDNKDCLIDKRQRNRCQYCRYQKCLAMGMKREAVQEE

Variants of B1 are the subject of the data set. Briefly: abundance fitness (aPCA) (normalised: wild type 0, dead -1); higher = more abundant; growth selection in yeast, the domain comes from the species named. Conditions: Homo sapiens.
For the variant KHICAICGDRSSGKHYGVYSCEGCKGFFKRTVRKDLTYTCRDNKDCLIDKRQRNRCQYCRYQKCQAMGMKREAVQEE [L65Q], the abundance fitness amounted to 0.021 ± 0.053.

On to KHICAICGDRSSGKHYGVYSCEGCKGFFKRTVRKDLTYTCRDNKDCLIDKRQRNRCQYCRYQKCLGMGMKREAVQEE [A66G], for which the abundance fitness was found to be 0.017 ± 0.036.

Regarding KHICAICGDRSSGKHYGVYSCEGCKGFFKRTVRKDLTYTCRDNKDCLIDKRQRNRCQYCRYQKCLCMGMKREAVQEE [A66C], the abundance fitness was -0.099 ± 0.036.

Take KHICAICGDRSSGKHYGVYSCEGCKGFFKRTVRKDLTYTCRDNKDCLIDKRQRNRCQYCRYQKCLYMGMKREAVQEE [A66Y]: the abundance fitness is -0.036 ± 0.036.

For KHICAICGDRSSGKHYGVYSCEGCKGFFKRTVRKDLTYTCRDNKDCLIDKRQRNRCQYCRYQKCLFMGMKREAVQEE [A66F], the abundance fitness was 0.015 ± 0.034.

KHICAICGDRSSGKHYGVYSCEGCKGFFKRTVRKDLTYTCRDNKDCLIDKRQRNRCQYCRYQKCLIMGMKREAVQEE [A66I]: the abundance fitness was -0.032 ± 0.035.

In the case of KHICAICGDRSSGKHYGVYSCEGCKGFFKRTVRKDLTYTCRDNKDCLIDKRQRNRCQYCRYQKCLVMGMKREAVQEE [A66V], the abundance fitness stood at 0.029 ± 0.033.

As to KHICAICGDRSSGKHYGVYSCEGCKGFFKRTVRKDLTYTCRDNKDCLIDKRQRNRCQYCRYQKCLDMGMKREAVQEE [A66D], the abundance fitness was found to be 0.031 ± 0.035.

In the case of KHICAICGDRSSGKHYGVYSCEGCKGFFKRTVRKDLTYTCRDNKDCLIDKRQRNRCQYCRYQKCLEMGMKREAVQEE [A66E], the abundance fitness was found to be 0.033 ± 0.045.

KHICAICGDRSSGKHYGVYSCEGCKGFFKRTVRKDLTYTCRDNKDCLIDKRQRNRCQYCRYQKCLHMGMKREAVQEE [A66H]: the abundance fitness was 0.045 ± 0.034.

KHICAICGDRSSGKHYGVYSCEGCKGFFKRTVRKDLTYTCRDNKDCLIDKRQRNRCQYCRYQKCLKMGMKREAVQEE [A66K]: the abundance fitness turned out to be 0.045 ± 0.047.

For the variant KHICAICGDRSSGKHYGVYSCEGCKGFFKRTVRKDLTYTCRDNKDCLIDKRQRNRCQYCRYQKCLNMGMKREAVQEE [A66N], the abundance fitness is -0.005 ± 0.036.

Consider KHICAICGDRSSGKHYGVYSCEGCKGFFKRTVRKDLTYTCRDNKDCLIDKRQRNRCQYCRYQKCLSMGMKREAVQEE [A66S], for which the abundance fitness came out at 0.015 ± 0.027.

On to KHICAICGDRSSGKHYGVYSCEGCKGFFKRTVRKDLTYTCRDNKDCLIDKRQRNRCQYCRYQKCLTMGMKREAVQEE [A66T], for which the abundance fitness stood at 0.002 ± 0.034.

As to KHICAICGDRSSGKHYGVYSCEGCKGFFKRTVRKDLTYTCRDNKDCLIDKRQRNRCQYCRYQKCLRMGMKREAVQEE [A66R], the abundance fitness is -0.019 ± 0.03.

In the case of KHICAICGDRSSGKHYGVYSCEGCKGFFKRTVRKDLTYTCRDNKDCLIDKRQRNRCQYCRYQKCLPMGMKREAVQEE [A66P], the abundance fitness was -0.713 ± 0.064.

With KHICAICGDRSSGKHYGVYSCEGCKGFFKRTVRKDLTYTCRDNKDCLIDKRQRNRCQYCRYQKCLWMGMKREAVQEE [A66W], the abundance fitness was -0.063 ± 0.046.

For KHICAICGDRSSGKHYGVYSCEGCKGFFKRTVRKDLTYTCRDNKDCLIDKRQRNRCQYCRYQKCLMMGMKREAVQEE [A66M], the abundance fitness is -0.042 ± 0.042.

As for KHICAICGDRSSGKHYGVYSCEGCKGFFKRTVRKDLTYTCRDNKDCLIDKRQRNRCQYCRYQKCLQMGMKREAVQEE [A66Q], the abundance fitness is -0.031 ± 0.045.

On to KHICAICGDRSSGKHYGVYSCEGCKGFFKRTVRKDLTYTCRDNKDCLIDKRQRNRCQYCRYQKCLLMGMKREAVQEE [A66L], for which the abundance fitness was determined as 0.047 ± 0.028.

As to KHICAICGDRSSGKHYGVYSCEGCKGFFKRTVRKDLTYTCRDNKDCLIDKRQRNRCQYCRYQKCLAYGMKREAVQEE [M67Y], the abundance fitness was -0.008 ± 0.031.

For the variant KHICAICGDRSSGKHYGVYSCEGCKGFFKRTVRKDLTYTCRDNKDCLIDKRQRNRCQYCRYQKCLASGMKREAVQEE [M67S], the abundance fitness is 0.019 ± 0.025.

As for KHICAICGDRSSGKHYGVYSCEGCKGFFKRTVRKDLTYTCRDNKDCLIDKRQRNRCQYCRYQKCLAAGMKREAVQEE [M67A], the abundance fitness was found to be 0.009 ± 0.029.

Take KHICAICGDRSSGKHYGVYSCEGCKGFFKRTVRKDLTYTCRDNKDCLIDKRQRNRCQYCRYQKCLACGMKREAVQEE [M67C]: the abundance fitness is -0.019 ± 0.035.

Regarding KHICAICGDRSSGKHYGVYSCEGCKGFFKRTVRKDLTYTCRDNKDCLIDKRQRNRCQYCRYQKCLARGMKREAVQEE [M67R], the abundance fitness came out at 0 ± 0.026.

For KHICAICGDRSSGKHYGVYSCEGCKGFFKRTVRKDLTYTCRDNKDCLIDKRQRNRCQYCRYQKCLANGMKREAVQEE [M67N], the abundance fitness is -0.006 ± 0.032.

For KHICAICGDRSSGKHYGVYSCEGCKGFFKRTVRKDLTYTCRDNKDCLIDKRQRNRCQYCRYQKCLAKGMKREAVQEE [M67K], the abundance fitness amounted to 0.007 ± 0.036.

As to KHICAICGDRSSGKHYGVYSCEGCKGFFKRTVRKDLTYTCRDNKDCLIDKRQRNRCQYCRYQKCLAWGMKREAVQEE [M67W], the abundance fitness was -0.055 ± 0.037.

As for KHICAICGDRSSGKHYGVYSCEGCKGFFKRTVRKDLTYTCRDNKDCLIDKRQRNRCQYCRYQKCLALGMKREAVQEE [M67L], the abundance fitness amounted to 0.018 ± 0.025.

On to KHICAICGDRSSGKHYGVYSCEGCKGFFKRTVRKDLTYTCRDNKDCLIDKRQRNRCQYCRYQKCLAIGMKREAVQEE [M67I], for which the abundance fitness was found to be 0.007 ± 0.031.

For KHICAICGDRSSGKHYGVYSCEGCKGFFKRTVRKDLTYTCRDNKDCLIDKRQRNRCQYCRYQKCLAGGMKREAVQEE [M67G], the abundance fitness was -0.023 ± 0.026.

For the variant KHICAICGDRSSGKHYGVYSCEGCKGFFKRTVRKDLTYTCRDNKDCLIDKRQRNRCQYCRYQKCLAVGMKREAVQEE [M67V], the abundance fitness is -0.009 ± 0.026.

On to KHICAICGDRSSGKHYGVYSCEGCKGFFKRTVRKDLTYTCRDNKDCLIDKRQRNRCQYCRYQKCLAFGMKREAVQEE [M67F], for which the abundance fitness was -0.017 ± 0.032.

KHICAICGDRSSGKHYGVYSCEGCKGFFKRTVRKDLTYTCRDNKDCLIDKRQRNRCQYCRYQKCLAPGMKREAVQEE [M67P]: the abundance fitness is -0.621 ± 0.052.

Take KHICAICGDRSSGKHYGVYSCEGCKGFFKRTVRKDLTYTCRDNKDCLIDKRQRNRCQYCRYQKCLAQGMKREAVQEE [M67Q]: the abundance fitness is -0.017 ± 0.036.

As to KHICAICGDRSSGKHYGVYSCEGCKGFFKRTVRKDLTYTCRDNKDCLIDKRQRNRCQYCRYQKCLAEGMKREAVQEE [M67E], the abundance fitness was -0.016 ± 0.036.
